What was measured:
Type in all cases: biochemical
[1] = biological target: recombinant PAF-AH encoded by clone sAH 406-3 (Homo sapiens, UniProt Q13093)
recombinant PAF-AH = biological target: T1, recombinant PAF-AH (Homo sapiens, UniProt Q13093); assay: Inhibition of PAF hydrolysis in standard PAF hydrolysis assay; settings: 0 to 125 μM; highest concentration 5-fold greater than PAF
T1 construct: 441 amino acids; At the amino terminus, a relatively hydrophobic segment of 41 residues precedes the N-terminal amino acid (the isoleucine at position 42); made in house; host or cells: E. coli (constructs trp AH / pUC trp AH)
T1 sequence (Q13093 42-441): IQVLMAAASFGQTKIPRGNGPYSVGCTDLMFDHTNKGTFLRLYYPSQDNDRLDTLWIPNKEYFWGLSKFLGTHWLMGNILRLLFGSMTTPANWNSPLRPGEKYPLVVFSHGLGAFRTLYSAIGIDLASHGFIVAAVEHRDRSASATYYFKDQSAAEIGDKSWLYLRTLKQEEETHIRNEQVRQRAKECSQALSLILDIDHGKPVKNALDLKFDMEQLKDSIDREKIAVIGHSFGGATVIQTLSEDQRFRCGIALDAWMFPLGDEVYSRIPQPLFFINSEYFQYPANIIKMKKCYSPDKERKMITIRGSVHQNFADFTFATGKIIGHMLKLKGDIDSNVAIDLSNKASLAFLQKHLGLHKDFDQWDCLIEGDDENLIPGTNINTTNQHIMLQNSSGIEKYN
Experimental: The most remarkable property of the PAF acetylhydrolase is its marked specificity for substrates with a short residue at the sn-2 position of the substrate. This strict specificity distinguishes PAF acetylhydrolase from other forms of PLA2. Thus, to determine if recombinant PAF-AH degrades phospholipids with long-chain fatty acids at the sn-2 position, hydrolysis of 1-palmitoyl-2-arachidonoyl-sn-glycero-3-phosphocholine (arachidonoylPC) was assayed since this is the preferred substrate for a well-characterized form of PLA2. […] In additional experiments, arachidonoylPC was included in a standard PAF hydrolysis assay at concentrations ranging from 0 to 125 μM to determine whether it inhibited the hydrolysis of PAF by recombinant PAF-AH. There was no inhibition of PAF hydrolysis even at the highest concentration of […], which was 5-fold greater than the concentration of PAF. […] Native plasma PAF-AH has several other properties that distinguish it from other phospholipases including calcium-independence and resistance to compounds that modify sulfhydryl groups or disrupt disulfides.

[2] = PAF-AH activity of E. coli constructs with extended amino termini (lysate, media); settings: trp promoter
Experimental: PAF-AH activity in transfectant supernatants was determined by the method of Stafforini et al. (1990), supra, with the following modifications. Briefly, PAF-AH activity was determined by measuring the hydrolysis of ^3H-acetate from [acetyl-^3H) PAF (New England Nuclear, Boston, Mass.). The aqueous free ^3H-acetate was separated from labeled substrate by reversed-phase column chromatography over octadecylsilica gel cartridges (Baker Research Products, Phillipsburg, Pa.). Assays were carried out using 10 μl transfectant supernatant in 0.1M Hepes buffer, pH 7.2, in a reaction volume of 50 μl. A total of 50 pmoles of substrate were used per reaction with a ratio of 1:5 labeled: cold PAF. Reactions were incubated for 30 minutes at 37° C. and stopped by the addition of 40 μl of 10M acetic acid. The solution was then washed through the octadecylsilica gel cartridges which were then rinsed with 0.1M sodium acetate. The aqueous eluate from each sample was collected and counted in a liquid scintillation counter for one minute. Enzyme activity was expressed in counts per minute.
and encompassed the termination codon of sAH 406-3 and contained an EcoRV cloning site. PCR reactions were performed essentially as described in Example 3. The resulting PCR product was digested with XbaI and EcoRV and subcloned into a pBR322 vector containing the Trp promoter [deBoer et al., PNAS. 80:21-25 (1983)] immediately upstream of the cloning site. E. coli strain XL-1 Blue was transformed with the expression construct and cultured in L broth containing 100 μg/ml of carbenicillin. Transformants from overnight cultures were pelleted and resuspended in lysis buffer containing 50 mM Tris-HCl pH 7.5, 50 mM NaCl, 10 mM CHAPS, 1 mM EDTA, 100 μg/ml lysozyme, and 0.05 trypsin-inhibiting units (TIU)/ml Aprotinin. Following a 1 hour incubation on ice and sonication for 2 minutes, the lysates were assayed for PAF-AH activity by the method described in Example 4. E. coli transformed with the expression construct (designated trp AH) generated a product with PAF-AH activity.
Several E. coli expression constructs were also evaluated which produce PAF-AH with extended amino termini. The N-terminus of natural plasma PAF-AH was identified as Ile42 by amino acid sequencing (Example 2). […] Acids Res., 14:4683-4690 (1986)]. Presumably a more classical signal sequence (M1-A17) is recognized by the cellular secretion system, followed by endoproteolytic cleavage. The entire coding sequence for PAF-AH beginning at the initiating methionine (nucleotides 162 to 1487 of SEQ ID NO: 7) was engineered for expression in E. coli using the trp promoter. […] Another expression construct, beginning at Val18 (nucleotides 213 to-1487 of SEQ ID NO: 7), produced active PAF-AH at about one third the level of the original construct.

Molecule: O=C(O)CN(CCN(CC(=O)O)CC(=O)O)CC(=O)O [EDTA, reference compound]
- Effect on PAF-AH activity of media from cells transfected with sAH 406-3 [1]: unaffected

Molecule: CCCCC/C=C\C/C=C\C/C=C\C/C=C\CCCC(=O)O[C@H](COC(=O)CCCCCCCCCCCCCCC)COP(=O)([O-])OCC[N+](C)(C)C [arachidonoylPC, 1-palmitoyl-2-arachidonoyl-sn-glycero-3-phosphocholine]
- Inhibition of hydrolysis of PAF by recombinant PAF-AH (recombinant PAF-AH): no inhibition

B1: sAH 406-3: Full length human plasma PAF-AH cDNA clone, product transiently expressed in COS 7 cells (protein)
chain: MVPPKLHVLFCLCGCLAVVYPFDWQYINPVAHMKSSAWVNKIQVLMAAASFGQTKIPRGNGPYSVGCTDLMFDHTNKGTFLRLYYPSQDNDRLDTLWIPNKEYFWGLSKFLGTHWLMGNILRLLFGSMTTPANWNSPLRPGEKYPLVVFSHGLGAFRTLYSAIGIDLASHGFIVAAVEHRDRSASATYYFKDQSAAEIGDKSWLYLRTLKQEEETHIRNEQVRQRAKECSQALSLILDIDHGKPVKNALDLKFDMEQLKDSIDREKIAVIGHSFGGATVIQTLSEDQRFRCGIALDAWMFPLGDEVYSRIPQPLFFINSEYFQYPANIIKMKKCYSPDKERKMITIRGSVHQNFADFTFATGKIIGHMLKLKGDIDSNVAIDLSNKASLAFLQKHLGLHKDFDQWDCLIEGDDENLIPGTNINTTNQHIMLQNSSGIEKYN
- PAF-AH activity of transfected COS cell media relative to background [1]: 4 fold

B2: pUC trp AH Met1: PAF-AH from entire coding sequence beginning at the initiating methionine, E. coli, trp promoter (protein, UniProt Q13093 1-441, looked up)
chain: B1 chain
modifications: full-length
- PAF-AH activity, Lysate ([2]; E. coli lysate): 3.1 U/ml/OD600
- PAF-AH activity, Media ([2]; E. coli media): 0.003 U/ml/OD600
